Laboratory results reported in PMC7099005, “Function-based high-throughput screening for antibody antagonists and agonists against G protein-coupled receptors” (Communications Biology, 2020).
Residue numbers refer to the chain shown, from its start.

B1: sdAb antagonist JN400 (VHH)
VHH: QVQLVESGGGSVQSGGSLRLSCAASGSTYRSHCMGWFRQAPGKEREEVAIMTRSRGTSYADSVKGRFTISQDNTKNILYLQMNSLKPEDTAMYYCAAVPRAGIGDGGYCKWNMKDSGSWGQGTLVTVSS
B2: sdAb antagonist JN402 (VHH)
VHH: B1 VHH with S14A, R30S, I50L, S54A, G104E, D105T, G107A
B3: sdAb antagonist JN413 (VHH)
VHH: B1 VHH with Q1D, G107A
B4: sdAb antagonist JN414 (VHH)
VHH: B1 VHH with R19T, R30S, E47G, I50L, G104E, D105S, G107A
B5: sdAb antagonist JN406 (VHH)
VHH: EVQLVESGGGSVQSGGSLRLSCAASGSTYRSHCMGWFRQAPGKEREGVAIMTSRGTTYADSVKGRFTISQDNTKNIFYLQMNSLKPEDTAMYYCAAVPRAGIGDGAFCKWNMKDSGSWGQGTLVTVSS
B6: sdAb antagonist JN412 (VHH)
VHH: B5 VHH with E1H, S14A
B7: sdAb antagonist JN401 (VHH)
VHH: HVQLVESGGGSVQSGGSLRLSCVASGITFSLYCMYWFRQAPGKEREAVASIRSTGATVYGDSVKGRFTISRDSAKNTLYLQMNSLNPEDTAMYYCAAAKKMLYGPGCGSYKDWGQGIQVTVSS
B8: sdAb antagonist JN409 (VHH)
VHH: QVQLVESGGGSVQSGGSLRLSCAASGDTSSRSCMGWFRQAPGKEREWVGRILNAGITSYADSVKGRFTISQDNVKNTLYLQMNSLNSEDTAIYYCAAGRTSYAGSWYCRYNYWGQGTQVTVSS
B9: sdAb antagonist JN411 (VHH)
VHH: HVQLVESGGGSVQAGGSLRLTCAASGLAYSRTCMGWFRQAPGKEREVVATIRRDGTTTYADSVKGRFTISRDNTRNTLALQMNSLKPEDSAMYYCAAVWVALGVPTSVCPSEYKFWGQGTLVTVSS
B10: sdAb antagonist JN404 (VHH)
VHH: QVQLVESGGGSVQAGGSLTLSCVGSGFSWSLNCMSWFRQAPGSEREGVAIFYSETGGAYYADSVEGRFSISQVNAGNTVLLRMNSLRPEDTAMYYCAAGYGCGSTESWWTYDYIFWGQGTLVTVSS
notes: camelid sdAb from a camel immunised with human APJ nanodiscs; source: FreeStyle 293F, transient (pTT5), purified (Ni-NTA)
B11: sdAb agonist JN300 (VHH)
VHH: HVQLVESGGGSVQAGGSLRLSCAASGYVGSMGWFRQAPGKDREGVAAFDFDGRAKHADSVKGRFTISRDNAKNTLYLQMNNLKPEDTAMYYCARSARQLLMLSHNPSDFGYWGQGTQVTVSS
notes: as for B10

target: T1, human apelin receptor (APJ), wild type (Homo sapiens, UniProt P35414); experiment: cell-based or functional assay; conditions: not given
T1 sequence (P35414 whole entry): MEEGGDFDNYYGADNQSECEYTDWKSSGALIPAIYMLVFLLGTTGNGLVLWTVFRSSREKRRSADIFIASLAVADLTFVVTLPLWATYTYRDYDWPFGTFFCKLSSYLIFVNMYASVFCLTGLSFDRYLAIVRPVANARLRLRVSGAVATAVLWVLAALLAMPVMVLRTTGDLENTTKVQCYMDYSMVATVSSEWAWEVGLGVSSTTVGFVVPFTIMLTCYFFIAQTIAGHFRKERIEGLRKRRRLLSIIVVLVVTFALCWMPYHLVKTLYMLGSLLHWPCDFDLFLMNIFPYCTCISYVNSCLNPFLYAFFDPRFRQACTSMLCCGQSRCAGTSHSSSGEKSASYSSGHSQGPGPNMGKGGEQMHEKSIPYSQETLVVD

Binder | IC50 of soluble sdAb in APJ PathHunter β-arrestin assay, antagonist mode (apelin 13 at EC80; blocks apelin 13 with APJ) [nM]
B1 | < 200
B2 | < 200
B3 | < 200
B4 | < 200
B5 | < 200
B6 | < 200
B7 | > 200
B8 | > 200
B9 | < 200

target: T1, human apelin receptor (APJ), wild type; experiment: flow cytometry on cells; 2 x 10^5 HEK293FT cells stably expressing HA-tagged huAPJ or its mutants stained with 250 nM soluble sdAb at 4 °C for 1 h; mouse anti-his antibody and Alexa Fluor 488 goat anti-mouse; sdAb GeoMean relative to anti-HA staining, normalised to WT APJ; conditions: one partner purified

Binder | binding result
B10 | binds
B11 | binds
